Laboratory results published in patent US20070134693A1 (published 2007).

Target: T1, M-tropic HIV-1MN envelope glycoprotein gp120 (HIV-1 MN, UniProt P05877 32-513)
T1 construct: also called HIV-1 gp120; HIV-MN gp120
Experiment: fluorescent bead adhesion assay on K562-DC-SIGN cells

B1: DC-SIGN (receptor)
chain: MSDSKEPRLQQLGLLEEEQLRGLGFRQTRGYKSLAGCLGHGPLVLQLLSFTLLAGLLVQVSKVPSSISQEQSRQDAIYQNLTQLKAAVGELSEKSKLQEIYQELTQLKAAVGELPEKSKLQEIYQELTRLKAAVGELPEKSKLQEIYQELTWLKAAVGELPEKSKMQEIYQELTRLKAAVGELPEKSKQQEIYQELTRLKAAVGELPEKSKQQEIYQELTRLKAAVGELPEKSKQQEIYQELTQLKAAVERLCHPCPWEWTFFQGNCYFMSNSQRNWHDSITACKEVGAQLVVIKSAEEQNFLQLQSSRSNRFTWMGLSDLNQEGTWQWVDGSPLLPSFKQYWNRGEPNNVGEEDCAEFSGNGWNDDKCNLAKFWICKKSAASCSRDEEQFLSPAPATPNPPPA
notes: whole, on cells; also called K562-DC-SIGN; THP-1-DC-SIGN
B1: binds.
